Measured values as given in IntAct's records for PubMed 35512704.

B1: Speckle-type POZ protein (Homo sapiens), O43791 (parent)
chain: MSRVPSPPPPAEMSSGPVAESWCYTQIKVVKFSYMWTINNFSFCREEMGEVIKSSTFSSGANDKLKWCLRVNPKGLDEESKDYLSLYLLLVSCPKSEVRAKFKFSILNAKGEETKAMESQRAYRFVQGKDWGFKKFIRRDFLLDEANGLLPDDKLTLFCEVSVVQDSVNISGQNTMNMVKVPECRLADELGGLWENSRFTDCCLCVAGQEFQAHKAILAARSPVFSAMFEHEMEESKKNRVEINDVEPEVFKEMMCFIYTGKAPNLDKMADDLLAAADKYALERLKVMCEDALCSNLSVENAAEILILADLHSADQLKTQAVDFINYHASDVLETSGWKSMVVSHPHLVAEAYRSLASAQCPFLGPPRKRLKQS

Variants of: B1
Conditions: with dpoe1_human POLE

Row | Variant | effect of a mutation on the interaction
1 | MSRVPSPPPPAEMSSGPVAESWCYTQIKVVKFSYMWTINNFSFCREEMGEVIKSSTFSSGANDKLKWCLRVNPKGLDEESKDYLSLCLLLVSCPKSEVRAKFKFSILNAKGEETKAMESQRAYRFVQGKDWGFKKFIRRDFLLDEANGLLPDDKLTLFCEVSVVQDSVNISGQNTMNMVKVPECRLADELGGLWENSRFTDCCLCVAGQEFQAHKAILAARSPVFSAMFEHEMEESKKNRVEINDVEPEVFKEMMCFIYTGKAPNLDKMADDLLAAADKYALERLKVMCEDALCSNLSVENAAEILILADLHSADQLKTQAVDFINYHASDVLETSGWKSMVVSHPHLVAEAYRSLASAQCPFLGPPRKRLKQS [Y87C] | with no effect

Variants of: B1
Conditions: with ppard_human PPARD

Row | Variant | effect of a mutation on the interaction
2 | MSRVPSPPPPAEMSSGPVAESWCYTQIKVVKFSYMWTINNFSFCREEMGEVIKSSTFSSGANDKLKWCLRVNPKGLDEESKDYLSLCLLLVSCPKSEVRAKFKFSILNAKGEETKAMESQRAYRFVQGKDWGFKKFIRRDFLLDEANGLLPDDKLTLFCEVSVVQDSVNISGQNTMNMVKVPECRLADELGGLWENSRFTDCCLCVAGQEFQAHKAILAARSPVFSAMFEHEMEESKKNRVEINDVEPEVFKEMMCFIYTGKAPNLDKMADDLLAAADKYALERLKVMCEDALCSNLSVENAAEILILADLHSADQLKTQAVDFINYHASDVLETSGWKSMVVSHPHLVAEAYRSLASAQCPFLGPPRKRLKQS [Y87C] | with no effect

Variants of: B1
Conditions: with prdm1_human PRDM1, O75626
prdm1_human PRDM1, O75626, sequence (O75626 whole entry): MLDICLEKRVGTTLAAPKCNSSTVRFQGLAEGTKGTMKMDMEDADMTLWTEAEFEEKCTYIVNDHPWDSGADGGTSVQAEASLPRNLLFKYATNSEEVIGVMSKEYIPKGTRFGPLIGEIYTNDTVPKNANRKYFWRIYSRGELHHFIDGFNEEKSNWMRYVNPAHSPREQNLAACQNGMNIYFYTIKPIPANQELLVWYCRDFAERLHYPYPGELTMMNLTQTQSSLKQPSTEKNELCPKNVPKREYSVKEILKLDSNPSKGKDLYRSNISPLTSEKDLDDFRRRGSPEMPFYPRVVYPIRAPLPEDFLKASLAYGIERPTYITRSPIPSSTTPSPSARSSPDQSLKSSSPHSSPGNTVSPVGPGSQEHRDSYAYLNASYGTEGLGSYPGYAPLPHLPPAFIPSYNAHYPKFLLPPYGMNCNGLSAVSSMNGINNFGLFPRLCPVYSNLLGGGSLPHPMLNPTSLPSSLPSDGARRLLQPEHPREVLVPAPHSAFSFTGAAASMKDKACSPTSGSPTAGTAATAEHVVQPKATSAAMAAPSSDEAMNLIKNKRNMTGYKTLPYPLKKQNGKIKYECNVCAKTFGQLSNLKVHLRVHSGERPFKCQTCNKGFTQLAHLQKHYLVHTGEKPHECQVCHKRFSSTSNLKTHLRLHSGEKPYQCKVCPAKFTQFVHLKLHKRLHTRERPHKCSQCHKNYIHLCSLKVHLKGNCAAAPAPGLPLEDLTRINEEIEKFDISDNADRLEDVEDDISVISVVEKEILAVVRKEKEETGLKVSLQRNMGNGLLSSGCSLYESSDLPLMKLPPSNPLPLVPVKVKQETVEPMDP

Row | Variant | effect of a mutation on the interaction
3 | MSRVPSPPPPAEMSSGPVAESWCYTQIKVVKFSYMWTINNFSFCREEMGEVIKSSTFSSGANDKLKWCLRVNPKGLDEESKDYLSLCLLLVSCPKSEVRAKFKFSILNAKGEETKAMESQRAYRFVQGKDWGFKKFIRRDFLLDEANGLLPDDKLTLFCEVSVVQDSVNISGQNTMNMVKVPECRLADELGGLWENSRFTDCCLCVAGQEFQAHKAILAARSPVFSAMFEHEMEESKKNRVEINDVEPEVFKEMMCFIYTGKAPNLDKMADDLLAAADKYALERLKVMCEDALCSNLSVENAAEILILADLHSADQLKTQAVDFINYHASDVLETSGWKSMVVSHPHLVAEAYRSLASAQCPFLGPPRKRLKQS [Y87C] | with no effect

Variants of: B1
Conditions: with prex2_human PREX2, Q70Z35
prex2_human PREX2, Q70Z35, sequence (Q70Z35 whole entry): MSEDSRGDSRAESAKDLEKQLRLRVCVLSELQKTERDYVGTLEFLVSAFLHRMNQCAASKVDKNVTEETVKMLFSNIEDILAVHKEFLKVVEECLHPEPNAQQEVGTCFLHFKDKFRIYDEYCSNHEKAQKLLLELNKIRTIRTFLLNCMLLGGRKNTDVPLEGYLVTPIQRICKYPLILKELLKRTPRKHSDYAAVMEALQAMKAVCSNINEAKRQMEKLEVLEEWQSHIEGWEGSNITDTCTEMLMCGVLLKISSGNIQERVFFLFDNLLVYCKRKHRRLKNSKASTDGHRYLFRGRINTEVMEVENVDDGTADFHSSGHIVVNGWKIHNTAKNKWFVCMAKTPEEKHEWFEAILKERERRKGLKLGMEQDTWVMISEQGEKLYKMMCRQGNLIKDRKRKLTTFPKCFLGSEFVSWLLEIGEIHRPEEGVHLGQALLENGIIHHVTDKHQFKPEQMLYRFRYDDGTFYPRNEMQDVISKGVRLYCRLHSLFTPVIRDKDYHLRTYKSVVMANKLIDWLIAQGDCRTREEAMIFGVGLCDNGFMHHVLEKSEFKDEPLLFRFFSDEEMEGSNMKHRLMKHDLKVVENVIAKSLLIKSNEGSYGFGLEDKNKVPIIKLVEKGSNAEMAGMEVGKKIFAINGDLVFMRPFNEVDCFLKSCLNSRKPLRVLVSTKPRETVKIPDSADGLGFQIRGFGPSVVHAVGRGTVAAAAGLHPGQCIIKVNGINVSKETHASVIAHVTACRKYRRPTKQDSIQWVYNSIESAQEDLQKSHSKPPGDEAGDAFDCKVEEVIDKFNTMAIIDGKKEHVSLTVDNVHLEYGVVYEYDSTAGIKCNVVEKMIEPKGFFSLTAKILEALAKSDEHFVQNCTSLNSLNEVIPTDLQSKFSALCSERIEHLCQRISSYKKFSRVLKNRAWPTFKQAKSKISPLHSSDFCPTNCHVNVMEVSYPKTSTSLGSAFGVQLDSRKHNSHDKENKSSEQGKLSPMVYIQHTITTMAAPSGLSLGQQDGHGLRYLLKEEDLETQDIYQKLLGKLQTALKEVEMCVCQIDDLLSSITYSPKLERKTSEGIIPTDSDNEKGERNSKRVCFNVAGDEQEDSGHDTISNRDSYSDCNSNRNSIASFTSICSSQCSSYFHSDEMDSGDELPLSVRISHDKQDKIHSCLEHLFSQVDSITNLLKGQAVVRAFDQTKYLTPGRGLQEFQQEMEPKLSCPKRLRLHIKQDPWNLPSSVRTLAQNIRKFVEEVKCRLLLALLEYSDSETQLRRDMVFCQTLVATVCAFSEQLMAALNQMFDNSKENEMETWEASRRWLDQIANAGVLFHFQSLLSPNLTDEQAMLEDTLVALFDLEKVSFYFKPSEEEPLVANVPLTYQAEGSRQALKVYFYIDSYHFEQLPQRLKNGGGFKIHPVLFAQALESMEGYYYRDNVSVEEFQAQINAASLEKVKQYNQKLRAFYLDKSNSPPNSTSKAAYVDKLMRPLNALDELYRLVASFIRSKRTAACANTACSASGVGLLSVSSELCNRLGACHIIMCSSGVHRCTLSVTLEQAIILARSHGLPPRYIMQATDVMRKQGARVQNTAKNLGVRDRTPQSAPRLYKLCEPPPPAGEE

Row | Variant | effect of a mutation on the interaction
4 | MSRVPSPPPPAEMSSGPVAESWCYTQIKVVKFSYMWTINNFSFCREEMGEVIKSSTFSSGANDKLKWCLRVNPKGLDEESKDYLSLCLLLVSCPKSEVRAKFKFSILNAKGEETKAMESQRAYRFVQGKDWGFKKFIRRDFLLDEANGLLPDDKLTLFCEVSVVQDSVNISGQNTMNMVKVPECRLADELGGLWENSRFTDCCLCVAGQEFQAHKAILAARSPVFSAMFEHEMEESKKNRVEINDVEPEVFKEMMCFIYTGKAPNLDKMADDLLAAADKYALERLKVMCEDALCSNLSVENAAEILILADLHSADQLKTQAVDFINYHASDVLETSGWKSMVVSHPHLVAEAYRSLASAQCPFLGPPRKRLKQS [Y87C] | with no effect

Variants of: B1
Conditions: with aapk2_human PRKAA2, P54646
aapk2_human PRKAA2, P54646, sequence (P54646 whole entry, looked up): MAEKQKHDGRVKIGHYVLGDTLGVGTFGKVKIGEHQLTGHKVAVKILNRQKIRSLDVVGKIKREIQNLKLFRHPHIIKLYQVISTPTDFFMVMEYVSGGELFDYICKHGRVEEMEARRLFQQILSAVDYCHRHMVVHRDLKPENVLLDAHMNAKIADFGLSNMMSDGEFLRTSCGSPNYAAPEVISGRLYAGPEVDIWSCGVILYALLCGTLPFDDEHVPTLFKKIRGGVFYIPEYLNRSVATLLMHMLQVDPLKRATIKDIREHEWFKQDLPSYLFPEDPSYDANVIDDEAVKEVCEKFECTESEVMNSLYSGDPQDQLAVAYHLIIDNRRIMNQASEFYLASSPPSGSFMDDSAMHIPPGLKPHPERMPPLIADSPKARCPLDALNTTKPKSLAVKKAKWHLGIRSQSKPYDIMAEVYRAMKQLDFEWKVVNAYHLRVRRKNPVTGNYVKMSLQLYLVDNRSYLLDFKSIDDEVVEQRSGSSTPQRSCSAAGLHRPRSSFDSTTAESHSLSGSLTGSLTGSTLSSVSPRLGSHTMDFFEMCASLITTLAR

Row | Variant | effect of a mutation on the interaction
5 | MSRVPSPPPPAEMSSGPVAESWCYTQIKVVKFSYMWTINNFSFCREEMGEVIKSSTFSSGANDKLKWCLRVNPKGLDEESKDYLSLCLLLVSCPKSEVRAKFKFSILNAKGEETKAMESQRAYRFVQGKDWGFKKFIRRDFLLDEANGLLPDDKLTLFCEVSVVQDSVNISGQNTMNMVKVPECRLADELGGLWENSRFTDCCLCVAGQEFQAHKAILAARSPVFSAMFEHEMEESKKNRVEINDVEPEVFKEMMCFIYTGKAPNLDKMADDLLAAADKYALERLKVMCEDALCSNLSVENAAEILILADLHSADQLKTQAVDFINYHASDVLETSGWKSMVVSHPHLVAEAYRSLASAQCPFLGPPRKRLKQS [Y87C] | with no effect

Variants of: B1
Conditions: with prss8_human PRSS8, Q16651
prss8_human PRSS8, Q16651, sequence (Q16651 whole entry, looked up): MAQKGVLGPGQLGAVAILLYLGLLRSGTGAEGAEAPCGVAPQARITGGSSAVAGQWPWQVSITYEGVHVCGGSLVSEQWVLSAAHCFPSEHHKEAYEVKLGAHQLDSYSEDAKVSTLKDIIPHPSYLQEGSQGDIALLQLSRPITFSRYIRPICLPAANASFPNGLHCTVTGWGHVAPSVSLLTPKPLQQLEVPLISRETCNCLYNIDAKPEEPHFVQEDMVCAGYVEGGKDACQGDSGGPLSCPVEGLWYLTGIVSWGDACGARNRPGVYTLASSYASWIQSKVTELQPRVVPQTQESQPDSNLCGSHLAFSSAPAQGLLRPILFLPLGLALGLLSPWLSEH

Row | Variant | effect of a mutation on the interaction
6 | MSRVPSPPPPAEMSSGPVAESWCYTQIKVVKFSYMWTINNFSFCREEMGEVIKSSTFSSGANDKLKWCLRVNPKGLDEESKDYLSLCLLLVSCPKSEVRAKFKFSILNAKGEETKAMESQRAYRFVQGKDWGFKKFIRRDFLLDEANGLLPDDKLTLFCEVSVVQDSVNISGQNTMNMVKVPECRLADELGGLWENSRFTDCCLCVAGQEFQAHKAILAARSPVFSAMFEHEMEESKKNRVEINDVEPEVFKEMMCFIYTGKAPNLDKMADDLLAAADKYALERLKVMCEDALCSNLSVENAAEILILADLHSADQLKTQAVDFINYHASDVLETSGWKSMVVSHPHLVAEAYRSLASAQCPFLGPPRKRLKQS [Y87C] | with no effect

Variants of: B1
Conditions: with ptk6_human PTK6, Q13882

Row | Variant | effect of a mutation on the interaction
7 | MSRVPSPPPPAEMSSGPVAESWCYTQIKVVKFSYMWTINNFSFCREEMGEVIKSSTFSSGANDKLKWCLRVNPKGLDEESKDYLSLCLLLVSCPKSEVRAKFKFSILNAKGEETKAMESQRAYRFVQGKDWGFKKFIRRDFLLDEANGLLPDDKLTLFCEVSVVQDSVNISGQNTMNMVKVPECRLADELGGLWENSRFTDCCLCVAGQEFQAHKAILAARSPVFSAMFEHEMEESKKNRVEINDVEPEVFKEMMCFIYTGKAPNLDKMADDLLAAADKYALERLKVMCEDALCSNLSVENAAEILILADLHSADQLKTQAVDFINYHASDVLETSGWKSMVVSHPHLVAEAYRSLASAQCPFLGPPRKRLKQS [Y87C] | with no effect

Variants of: B1
Conditions: with tf65_human RELA

Row | Variant | effect of a mutation on the interaction
8 | MSRVPSPPPPAEMSSGPVAESWCYTQIKVVKFSYMWTINNFSFCREEMGEVIKSSTFSSGANDKLKWCLRVNPKGLDEESKDYLSLCLLLVSCPKSEVRAKFKFSILNAKGEETKAMESQRAYRFVQGKDWGFKKFIRRDFLLDEANGLLPDDKLTLFCEVSVVQDSVNISGQNTMNMVKVPECRLADELGGLWENSRFTDCCLCVAGQEFQAHKAILAARSPVFSAMFEHEMEESKKNRVEINDVEPEVFKEMMCFIYTGKAPNLDKMADDLLAAADKYALERLKVMCEDALCSNLSVENAAEILILADLHSADQLKTQAVDFINYHASDVLETSGWKSMVVSHPHLVAEAYRSLASAQCPFLGPPRKRLKQS [Y87C] | with no effect

Variants of: B1
Conditions: with rictr_human RICTOR

Row | Variant | effect of a mutation on the interaction
9 | MSRVPSPPPPAEMSSGPVAESWCYTQIKVVKFSYMWTINNFSFCREEMGEVIKSSTFSSGANDKLKWCLRVNPKGLDEESKDYLSLCLLLVSCPKSEVRAKFKFSILNAKGEETKAMESQRAYRFVQGKDWGFKKFIRRDFLLDEANGLLPDDKLTLFCEVSVVQDSVNISGQNTMNMVKVPECRLADELGGLWENSRFTDCCLCVAGQEFQAHKAILAARSPVFSAMFEHEMEESKKNRVEINDVEPEVFKEMMCFIYTGKAPNLDKMADDLLAAADKYALERLKVMCEDALCSNLSVENAAEILILADLHSADQLKTQAVDFINYHASDVLETSGWKSMVVSHPHLVAEAYRSLASAQCPFLGPPRKRLKQS [Y87C] | with no effect

Variants of: B1
Conditions: with rnf43_human RNF43, Q68DV7
rnf43_human RNF43, Q68DV7, sequence (Q68DV7 whole entry): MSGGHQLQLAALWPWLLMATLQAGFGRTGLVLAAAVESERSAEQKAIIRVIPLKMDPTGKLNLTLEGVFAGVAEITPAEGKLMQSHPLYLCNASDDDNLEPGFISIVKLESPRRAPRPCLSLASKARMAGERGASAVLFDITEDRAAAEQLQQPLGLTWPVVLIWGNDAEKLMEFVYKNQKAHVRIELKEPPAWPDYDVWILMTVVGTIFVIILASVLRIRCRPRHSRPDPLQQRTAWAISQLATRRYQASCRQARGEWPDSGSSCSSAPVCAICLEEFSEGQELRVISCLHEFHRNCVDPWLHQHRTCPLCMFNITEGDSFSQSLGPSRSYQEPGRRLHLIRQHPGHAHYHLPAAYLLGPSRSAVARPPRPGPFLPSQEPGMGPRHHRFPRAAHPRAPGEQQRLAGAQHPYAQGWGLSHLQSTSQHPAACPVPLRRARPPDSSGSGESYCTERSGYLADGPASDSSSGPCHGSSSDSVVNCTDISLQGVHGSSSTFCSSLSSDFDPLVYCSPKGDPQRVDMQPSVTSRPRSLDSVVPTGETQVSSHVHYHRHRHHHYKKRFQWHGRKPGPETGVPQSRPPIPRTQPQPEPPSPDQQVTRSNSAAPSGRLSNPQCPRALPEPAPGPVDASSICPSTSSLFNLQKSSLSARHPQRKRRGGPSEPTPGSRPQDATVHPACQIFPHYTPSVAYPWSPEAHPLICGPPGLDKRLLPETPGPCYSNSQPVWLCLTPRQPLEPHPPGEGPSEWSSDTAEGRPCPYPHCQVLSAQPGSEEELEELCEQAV

Row | Variant | effect of a mutation on the interaction
10 | MSRVPSPPPPAEMSSGPVAESWCYTQIKVVKFSYMWTINNFSFCREEMGEVIKSSTFSSGANDKLKWCLRVNPKGLDEESKDYLSLCLLLVSCPKSEVRAKFKFSILNAKGEETKAMESQRAYRFVQGKDWGFKKFIRRDFLLDEANGLLPDDKLTLFCEVSVVQDSVNISGQNTMNMVKVPECRLADELGGLWENSRFTDCCLCVAGQEFQAHKAILAARSPVFSAMFEHEMEESKKNRVEINDVEPEVFKEMMCFIYTGKAPNLDKMADDLLAAADKYALERLKVMCEDALCSNLSVENAAEILILADLHSADQLKTQAVDFINYHASDVLETSGWKSMVVSHPHLVAEAYRSLASAQCPFLGPPRKRLKQS [Y87C] | with no effect

Variants of: B1
Conditions: with ros1_human ROS1, P08922

Row | Variant | effect of a mutation on the interaction
11 | MSRVPSPPPPAEMSSGPVAESWCYTQIKVVKFSYMWTINNFSFCREEMGEVIKSSTFSSGANDKLKWCLRVNPKGLDEESKDYLSLCLLLVSCPKSEVRAKFKFSILNAKGEETKAMESQRAYRFVQGKDWGFKKFIRRDFLLDEANGLLPDDKLTLFCEVSVVQDSVNISGQNTMNMVKVPECRLADELGGLWENSRFTDCCLCVAGQEFQAHKAILAARSPVFSAMFEHEMEESKKNRVEINDVEPEVFKEMMCFIYTGKAPNLDKMADDLLAAADKYALERLKVMCEDALCSNLSVENAAEILILADLHSADQLKTQAVDFINYHASDVLETSGWKSMVVSHPHLVAEAYRSLASAQCPFLGPPRKRLKQS [Y87C] | with no effect

Variants of: B1
Conditions: with rl11_human RPL11, P62913

Row | Variant | effect of a mutation on the interaction
12 | MSRVPSPPPPAEMSSGPVAESWCYTQIKVVKFSYMWTINNFSFCREEMGEVIKSSTFSSGANDKLKWCLRVNPKGLDEESKDYLSLCLLLVSCPKSEVRAKFKFSILNAKGEETKAMESQRAYRFVQGKDWGFKKFIRRDFLLDEANGLLPDDKLTLFCEVSVVQDSVNISGQNTMNMVKVPECRLADELGGLWENSRFTDCCLCVAGQEFQAHKAILAARSPVFSAMFEHEMEESKKNRVEINDVEPEVFKEMMCFIYTGKAPNLDKMADDLLAAADKYALERLKVMCEDALCSNLSVENAAEILILADLHSADQLKTQAVDFINYHASDVLETSGWKSMVVSHPHLVAEAYRSLASAQCPFLGPPRKRLKQS [Y87C] | with no effect

Variants of: B1
Conditions: with rl5_human RPL5, P46777

Row | Variant | effect of a mutation on the interaction
13 | MSRVPSPPPPAEMSSGPVAESWCYTQIKVVKFSYMWTINNFSFCREEMGEVIKSSTFSSGANDKLKWCLRVNPKGLDEESKDYLSLCLLLVSCPKSEVRAKFKFSILNAKGEETKAMESQRAYRFVQGKDWGFKKFIRRDFLLDEANGLLPDDKLTLFCEVSVVQDSVNISGQNTMNMVKVPECRLADELGGLWENSRFTDCCLCVAGQEFQAHKAILAARSPVFSAMFEHEMEESKKNRVEINDVEPEVFKEMMCFIYTGKAPNLDKMADDLLAAADKYALERLKVMCEDALCSNLSVENAAEILILADLHSADQLKTQAVDFINYHASDVLETSGWKSMVVSHPHLVAEAYRSLASAQCPFLGPPRKRLKQS [Y87C] | with no effect

Variants of: B1
Conditions: with rs15_human RPS15, P62841

Row | Variant | effect of a mutation on the interaction
14 | MSRVPSPPPPAEMSSGPVAESWCYTQIKVVKFSYMWTINNFSFCREEMGEVIKSSTFSSGANDKLKWCLRVNPKGLDEESKDYLSLCLLLVSCPKSEVRAKFKFSILNAKGEETKAMESQRAYRFVQGKDWGFKKFIRRDFLLDEANGLLPDDKLTLFCEVSVVQDSVNISGQNTMNMVKVPECRLADELGGLWENSRFTDCCLCVAGQEFQAHKAILAARSPVFSAMFEHEMEESKKNRVEINDVEPEVFKEMMCFIYTGKAPNLDKMADDLLAAADKYALERLKVMCEDALCSNLSVENAAEILILADLHSADQLKTQAVDFINYHASDVLETSGWKSMVVSHPHLVAEAYRSLASAQCPFLGPPRKRLKQS [Y87C] | with no effect

Variants of: B1
Conditions: with rs2_human RPS2, P15880

Row | Variant | effect of a mutation on the interaction
15 | MSRVPSPPPPAEMSSGPVAESWCYTQIKVVKFSYMWTINNFSFCREEMGEVIKSSTFSSGANDKLKWCLRVNPKGLDEESKDYLSLCLLLVSCPKSEVRAKFKFSILNAKGEETKAMESQRAYRFVQGKDWGFKKFIRRDFLLDEANGLLPDDKLTLFCEVSVVQDSVNISGQNTMNMVKVPECRLADELGGLWENSRFTDCCLCVAGQEFQAHKAILAARSPVFSAMFEHEMEESKKNRVEINDVEPEVFKEMMCFIYTGKAPNLDKMADDLLAAADKYALERLKVMCEDALCSNLSVENAAEILILADLHSADQLKTQAVDFINYHASDVLETSGWKSMVVSHPHLVAEAYRSLASAQCPFLGPPRKRLKQS [Y87C] | with no effect
